Measured values: publication PMC11695720 (Nature Communications, 2025)

Columns and labels:
[1] = target: Biotinylated SARS-CoV-2 (Wuhan) RBD (SARS-CoV-2 (Wuhan), UniProt P0DTC2, biotin (EZ-Link Sulfo-NHS-LC-biotin per p-0040; Lys15 biotinylation site within the N-terminal AviTag per fig-0003 and p-0075)); test: SPR; conditions: both partners purified
[2] = target: Soluble monovalent SARS-CoV-2 RBD (RBD-H) (SARS-CoV-2 (Wuhan, assumed), UniProt P0DTC2); test: SPR; conditions: both partners purified

B1: FD-5D antibody (antibody, V domains shown)
VH: EVQLVESGGGLVQPGGSLRLSCAASGFTFSSYSMNWVRQAPGKGLEWVSYISSSSSTIYYADSVKGRFTISRDNAKNSLYLQMNSLRAEDTAVYYCASPGGITAAGTSVLFGYYGMDVWGQGTTVTVSS
VL: not shown
notes: source: ExpiCHO, transfected, purified (MabSelect SuRe); copies: 2 + 2
Does B1 bind [1]?
Result: binds

Does B1 bind [2]?
Result: binds

B2: FD-11A IgG1 antibody (antibody, V domains shown)
VH: EVQLVESGGGVVQPGRSLRLSCAASGFTFSSYGMHWVRQAPGKGLEWVAVIWYDGSNKYYADSVKGRFTISRDNSKNTLYLQMNSLRAEDTAVYYCAKGPDILTGYYNYYYYGMDVWGQGTMVTVSS
VL: QSVLTQPPSVSGAPGQRVTISCTGSSSNIGAGYDVHWYQQLPGTAPKLLIYGNSNRPSGVPDRFSGSKSGTSASLAITGLQAEDEADYYCQSYDSSLSGFYVVFGGGTKLTVL
notes: also called IgG1 FD-11A; source: ExpiCHO, transfected, purified (MabSelect SuRe); copies: 2 + 2
With B2 as the binder, how does the Kd [1] read?
Its Kd is 1230 nM.

B3: REGN10987 therapeutic antibody (antibody, V domains shown)
VH: QVQLVESGGGVVQPGRSLRLSCAASGFTFSNYAMYWVRQAPGKGLEWVAVISYDGSNKYYADSVKGRFTISRDNSKNTLYLQMNSLRTEDTAVYYCASGSDYGDYLLVYWGQGTLVTVSS
VL: QSALTQPASVSGSPGQSITISCTGTSSDVGGYNYVSWYQQHPGKAPKLMIYDVSKRPSGVSNRFSGSKSGNTASLTISGLQSEDEADYYCNSLTSISTWVFGGGTKLTVL
notes: as for B1
Does B3 bind [1]?
Result: binds

B4: EY6A antibody (antibody, V domains shown)
VH: EVQLVESGGGVVQPGRSLRLSCAASAFTFSSYDMHWVRQAPGKGLEWVAVISYDGSNKYYADSVKGRFTISRDNSKNTLYLQMNSLRAEDTAVYYCAKDGGKLWVYYFDYWGQGTLVTVSS
VL: not shown
notes: as for B1
Does B4 bind [1]?
Result: binds

Does B4 bind [2]?
Result: binds

B5: FI-3A antibody (antibody, V domains shown)
VH: EVQLLESGGGLIQPGGSLRLSCAASGFTVSSNYMSWVRQAPGKGLEWVSVIYSGGSTYYADSVKGRFTISRDNSKNTLYLQMNSLRAEDTAVYYCARDHVRPGMNIWGQGTMVTVSS
VL: not shown
notes: as for B1
Does B5 bind [1]?
Result: binds

Does B5 bind [2]?
Result: binds
